In paper PMC3943411, “Modular assembly of designer PUF proteins for specific post-transcriptional regulation of endogenous RNA” one finds Kd data, which are given here for 5 molecules.

Common to all, as to conditions: protein: recombinant; tags: His-tag (pET28a); label: 5' 6-carboxyfluorescein
Data set [1] has as its target T1, PUF (S4) (human, UniProt Q14671 828-1176, C935N;N971C;H972Y;C1007N;N1043C).
T1 sequence: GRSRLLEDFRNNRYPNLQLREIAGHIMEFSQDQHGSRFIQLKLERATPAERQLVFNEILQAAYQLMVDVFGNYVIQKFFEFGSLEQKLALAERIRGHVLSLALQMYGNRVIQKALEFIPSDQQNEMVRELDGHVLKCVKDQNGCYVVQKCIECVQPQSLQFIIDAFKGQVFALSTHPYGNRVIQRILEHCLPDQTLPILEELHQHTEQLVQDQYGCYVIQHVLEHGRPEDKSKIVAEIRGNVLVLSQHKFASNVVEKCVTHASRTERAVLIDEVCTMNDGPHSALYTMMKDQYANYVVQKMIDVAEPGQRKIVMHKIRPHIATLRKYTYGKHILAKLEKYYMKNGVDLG
Kind of data set: fluorescence polarization/anisotropy; cognate; 1 nM RNA; 20 mM Tris-HCl pH 7.5, 0.5 mM EDTA, 50 mM KCl, 0.1 mg/ml BSA; temperature not stated; protein corrected for active fraction (about 30%); KD mean ± SD, n = 3.

For data set [2], the target named is T2, PUF (S2) (human, UniProt Q14671 828-1176, S863N;N1122C). Described as above.
In another data set the target is T3, PUF (S8) (human, UniProt Q14671 828-1176, S863N;N899S;Q903E;C935N;N971C;H972Y;C1007N;N1043C;S1079N;E1083Q;N1122C).
T3 sequence: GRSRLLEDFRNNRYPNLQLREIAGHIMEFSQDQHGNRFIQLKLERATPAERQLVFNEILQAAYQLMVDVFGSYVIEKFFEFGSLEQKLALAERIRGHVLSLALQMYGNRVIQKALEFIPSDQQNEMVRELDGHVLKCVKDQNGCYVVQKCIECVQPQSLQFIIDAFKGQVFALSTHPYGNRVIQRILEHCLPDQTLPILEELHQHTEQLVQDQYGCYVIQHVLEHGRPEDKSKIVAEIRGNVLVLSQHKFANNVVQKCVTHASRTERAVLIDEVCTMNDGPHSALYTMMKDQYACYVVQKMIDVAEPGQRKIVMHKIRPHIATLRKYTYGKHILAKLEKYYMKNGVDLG
The description is as above.

Data set [3] concerns the target T1, PUF (S4). Kind of data set: fluorescence polarization/anisotropy; noncognate; 1 nM RNA; 20 mM Tris-HCl pH 7.5, 0.5 mM EDTA, 50 mM KCl, 0.1 mg/ml BSA; temperature not stated; protein corrected for active fraction (about 30%); KD mean ± SD, n = 3.
In data set [4] the target is T4, PUF (S6) (human, UniProt Q14671 828-1176, S863N;C935N;N971C;H972Y;C1007N;N1043C;N1122C).
T4 sequence: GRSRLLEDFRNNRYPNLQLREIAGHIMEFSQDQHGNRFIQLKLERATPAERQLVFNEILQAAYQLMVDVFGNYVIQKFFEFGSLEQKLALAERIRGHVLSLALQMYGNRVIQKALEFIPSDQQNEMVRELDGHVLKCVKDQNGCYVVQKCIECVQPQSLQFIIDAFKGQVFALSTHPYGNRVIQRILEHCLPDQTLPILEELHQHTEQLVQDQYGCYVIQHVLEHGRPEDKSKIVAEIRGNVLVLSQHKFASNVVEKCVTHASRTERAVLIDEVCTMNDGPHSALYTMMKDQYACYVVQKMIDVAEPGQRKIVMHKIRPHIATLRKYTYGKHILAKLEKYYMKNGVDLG
The data set is described as above.

The target in data set [5] is T2, PUF (S2). The data set is described as above.
The target in data set [6] is T4, PUF (S6). The data set can be described thus: fluorescence polarization/anisotropy; cognate; 1 nM RNA; 20 mM Tris-HCl pH 7.5, 0.5 mM EDTA, 50 mM KCl, 0.1 mg/ml BSA; temperature not stated; protein corrected for active fraction (about 30%); KD mean ± SD, n = 3.

For the molecule CCAGAAUUGAUAUUAUUCG (ssRNA) [S4 RNA (UGAUAUUA)], in the data set with PUF (S4) [1], the Kd was 0.59 ± 0.1 nM.

Take CCAGAAUAGUAUAUUAUUCG (ssRNA) [S2 RNA (AGUAUAUU)]: the Kd with PUF (S2) [2] was found to be 0.76 ± 0.11 nM. For CCAGAAUAUAUAUGUUUCG (ssRNA) [S8 RNA (AUAUAUGU)], the Kd with PUF (S8) was 2.79 ± 0.69 nM. Consider CCAGAAUUGUAUAUAUUCG (ssRNA) [WT RNA (UGUAUAUA)], for which the Kd with PUF (S4) [3] stood at 5.77 ± 1.33 nM; with PUF (S6) [4], 89.6 ± 16.5 nM; with PUF (S2) [5], 6.29 ± 2.8 nM. Turning to CCAGAAUAGAUAUUUUUCG (ssRNA) [S6 RNA (AGAUAUUU)], the Kd with PUF (S6) [6] turned out to be 6.05 ± 0.25 nM.
